According to patent US20220265819A1 (GEN2 NEUROSCIENCE, published 2022):
Residue numbers refer to the chain shown, from its start. Blank lines part the entries; values can stand above or below the binder they belong to.

Columns and labels:
[1] = target: full length pHrodo-labelled monomeric (P301S) 2N4R tau (human, UniProt P10636 1-758, labelled with pHrodo Red Maleimide); assay: cell-based or functional assay
[2] = target: full length pHrodo-labelled aggregated (P301S) 2N4R tau (human, UniProt P10636 1-758, labelled with pHrodo Red Maleimide); assay: cell-based or functional assay
[3] = target: T1, full length recombinant human 2N4R tau (amino acids 1-441) (human, UniProt P10636 1-758); assay: SPR Biacore SCK, IgG on Protein A, tau analyte
T1 construct: Bought (rPeptide); recombinant, non-phosphorylated; also called recombinant tau
Protocol: (§1) 23.5 Assessment of antibody binding to tau (Biacore SCK analysis): Binding of anti-tau hIgG1 to full length recombinant 2N4R tau (Rpeptide; SEQ ID NO: 2) was assessed using the Biacore T200 (GE Healthcare, Chicago, Ill., USA) running Biacore T200 Evaluation Software V2.0.1. hIgG1 were immobilised on a Protein A capture sensor chip in running buffer (HBS-EP+ buffer containing 1 mg/mL BSA) at 25° C. captured to ˜50 RU at 10 μL/min. For single-cycle kinetics experiments, recombinant 2N4R tau was flowed at concentrations ranging from 5 nM to 40 nM (2-fold dilutions) with an association time of 150 s and a dissociation time of 200 s. Curves were compared to a reference cell that was mock immobilized (no antibody present).
Data were analysed using Langmuir (1:1) binding analysis, describing a 1:1 interaction at the surface: […]

[4] = target: T1, full length recombinant human 2N4R tau …; assay: SPR Biacore MCK, purified IgG on Protein A, tau analyte
Protocol: Biacore multi-cycle kinetics (MCK) analyses for antibody binding to recombinant (non-phosphorylated) 2N4R tau are summarised in FIG. 23 and Table 8. […] Slight variations in RMAX are considered likely to be due to differences in ligand capture and not reflective of significant variation in antibody binding characteristics.
as §1, with “24.2” for “23.5”, “MCK” for “SCK”, “For single-cycle kinetics experiments, recombinant 2N4R tau was flowed at concentrations ranging from 5 nM to 40 nM (2-fold dilutions) with an association time of 150 s and a dissociation time of 200 s.” left out

[5] = target: T2, Bovine serum albumin (bovine, UniProt P02769 25-607); assay: ELISA on 1% BSA, HEK supernatant, anti-human IgG-HRP, n=1
T2 construct: Negative control antigen in ELISA; also called BSA
Protocol: Antigen was removed from wells and the plates were then blocked for 1 hour at RT with 5% dried milk in 1×TBS. Blocking solution was removed, HEK293 cell supernatant (1:100 in 1% BSA/1×TBS) was added to relevant wells, and plates were incubated for 1 hour at RT with gentle shaking. Plates were then washed four times with TBS/0.1% Tween (TBST). Goat-anti-human IgG-HRP antibody (ThermoFisher Scientific, Waltham, Mass. USA), diluted 1:2000 in 5% milk/TBS, was added to each well and plates were incubated for 1 hour at RT with gentle shaking before being washed four times with TBST. 3,3′,5,5′-tetramethylbenzidine (TMB) ELISA solution was added to each well and plates were incubated for 15 mins at RT. An equal volume of 1 M sulfuric acid was added to each well and OD was measured at 450 nm.

full length pHrodo-labelled aggregated (P301S) 2N4R tau, sequence (P10636 other isoform, or with tags, fused parts or gaps P301S P301S): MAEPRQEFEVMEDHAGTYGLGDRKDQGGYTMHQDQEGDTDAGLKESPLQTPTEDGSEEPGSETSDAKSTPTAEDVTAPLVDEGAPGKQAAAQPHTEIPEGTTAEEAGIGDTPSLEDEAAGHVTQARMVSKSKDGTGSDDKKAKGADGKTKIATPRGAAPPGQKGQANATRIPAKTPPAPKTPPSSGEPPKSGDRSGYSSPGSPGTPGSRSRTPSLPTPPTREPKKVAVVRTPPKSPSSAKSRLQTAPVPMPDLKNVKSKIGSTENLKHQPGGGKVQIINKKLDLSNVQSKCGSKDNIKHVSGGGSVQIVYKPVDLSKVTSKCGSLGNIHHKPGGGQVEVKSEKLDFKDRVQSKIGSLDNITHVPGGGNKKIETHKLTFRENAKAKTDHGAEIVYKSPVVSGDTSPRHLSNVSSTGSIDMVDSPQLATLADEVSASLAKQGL
full length pHrodo-labelled monomeric (P301S) 2N4R tau, sequence (P10636 other isoform, or with tags, fused parts or gaps P301S P301S): as above
T2 sequence (P02769 25-607 limits assumed): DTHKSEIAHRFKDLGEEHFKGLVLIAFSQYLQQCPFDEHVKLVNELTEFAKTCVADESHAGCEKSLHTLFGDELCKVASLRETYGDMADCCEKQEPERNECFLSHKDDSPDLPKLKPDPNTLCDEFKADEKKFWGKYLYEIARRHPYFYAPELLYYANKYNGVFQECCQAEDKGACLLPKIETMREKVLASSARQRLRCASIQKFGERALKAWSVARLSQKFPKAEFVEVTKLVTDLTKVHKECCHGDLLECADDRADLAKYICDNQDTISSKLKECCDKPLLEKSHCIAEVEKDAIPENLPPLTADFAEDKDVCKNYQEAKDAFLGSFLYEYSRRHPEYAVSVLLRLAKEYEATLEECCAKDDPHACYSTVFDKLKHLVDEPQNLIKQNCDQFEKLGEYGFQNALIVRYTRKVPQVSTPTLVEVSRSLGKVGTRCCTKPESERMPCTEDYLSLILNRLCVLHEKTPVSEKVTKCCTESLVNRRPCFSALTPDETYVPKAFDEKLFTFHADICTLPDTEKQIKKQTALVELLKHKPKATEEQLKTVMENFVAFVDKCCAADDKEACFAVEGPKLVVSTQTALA
T1 sequence (P10636 other isoform, or with tags, fused parts or gaps limits assumed): as the sequence (P10636 other isoform, or with tags, fused parts or gaps P301S P301S) above, with S301P counted along it

B1: Clone 31 (VH5Vκ2), humanised variant of clone #28, human IgG1 (antibody, V domains shown)
VH: QVQLQESGPGLVKPSETLSLTCTVSGFSLNNYDMSWVRQAPGKGLEWIGTVSTTYRRYYASWAKGRFTISRDNSKNTLDLQMTSLTAEDTATYFCAASGIWGRGTLVTVSS
VL: AQVLTQSPSTLSASVGDRVTITCQSSQRVYSNYLAWYQQKPGQPPKRLIFLASTLESGVPSRFSGSGSGTEFTLTISSLQPDDFATYYCAGTYTGSIWAFGGGTKVEIK
notes: also called VH5VK2; VH5Vk2
inhibition of uptake of monomeric tau into human iPSC-derived astrocytes [1]: 26.7 % inhibition | inhibition of uptake of monomeric tau into human iPSC-derived neurons [1]: 57.3 % inhibition | increase of uptake of aggregated tau into human iPSC-derived microglia [2]: 133 % increase | inhibition of uptake of aggregated tau into human iPSC-derived astrocytes [2]: 27.8 % inhibition | inhibition of uptake of aggregated tau into human iPSC-derived neurons [2]: 57.2 % inhibition | Kd [3]: 96.5 nM | Relative KD [3]: 2.13 fold vs VH0VK0 | koff [3]: 0.00362 s⁻¹ | kon [3]: 37500 M⁻¹ s⁻¹ | Kd [4]: 34.8 nM | Relative KD [4]: 1.4 fold vs VH0VK0 | koff [4]: 0.00321 s⁻¹ | kon [4]: 92400 M⁻¹ s⁻¹ | binding result [5]: no binding (tested: supernatant 1:100)

B2: Clone 18 (VH2Vκ1), humanised variant of clone #28, human IgG1 (antibody, V domains shown)
VH: QSLQESGPGLVKPSETLSLTCTVSGFSLNNYDMSWVRQAPGKGLEWIGTVSTTYRRYYASWAKGRFTISKTSSTTVDLQMTSLTAEDTATYFCAASGIWGRGTLVTVSS
VL: B1 VL with P8T, T10P, P81C, K105E, E107V
notes: also called VH2VK1
Kd [3]: 49.2 nM | Relative KD [3]: 1.09 fold vs VH0VK0 | koff [3]: 0.0033 s⁻¹ | kon [3]: 67100 M⁻¹ s⁻¹ | binding result [5]: no binding (tested: supernatant 1:100)

B3: Clone 20 (VH2Vκ4), humanised variant of clone #28, human IgG1 (antibody, V domains shown)
VH: B2 VH
VL: B1 VL with A1D, Q2I, V3Q, L4M
notes: also called VH2VK4
Kd [3]: 38 nM | Relative KD [3]: 0.84 fold vs VH0VK0 | koff [3]: 0.00234 s⁻¹ | kon [3]: 61500 M⁻¹ s⁻¹ | binding result [5]: no binding (tested: supernatant 1:100)

B4: Clone 27 (VH4Vκ2), humanised variant of clone #28, human IgG1 (antibody, V domains shown)
VH: B1 VH with R71K, N73T, K75S, N76T, L78V
VL: B1 VL
notes: also called VH4VK2; VH4Vk2
inhibition of uptake of monomeric tau into human iPSC-derived neurons [1]: 66.5 % inhibition | increase of uptake of aggregated tau into human iPSC-derived microglia [2]: 179 % increase | inhibition of uptake of aggregated tau into human iPSC-derived neurons [2]: 58.7 % inhibition | Kd [3]: 68.6 nM | Relative KD [3]: 1.51 fold vs VH0VK0 | koff [3]: 0.00308 s⁻¹ | kon [3]: 44800 M⁻¹ s⁻¹ | Kd [4]: 44 nM | Relative KD [4]: 1.77 fold vs VH0VK0 | koff [4]: 0.0026 s⁻¹ | kon [4]: 59100 M⁻¹ s⁻¹ | binding result [5]: no binding (tested: supernatant 1:100)

B5: Clone 28 (VH4Vκ4), humanised variant of clone #28, human IgG1 (antibody, V domains shown)
VH: B1 VH with R71K, N73T, K75S, N76T, L78V
VL: B1 VL with A1D, Q2I, V3Q, L4M
notes: also called VH4VK4; VH4Vk4
inhibition of uptake of monomeric tau into human iPSC-derived astrocytes [1]: 42 % inhibition | inhibition of uptake of monomeric tau into human iPSC-derived neurons [1]: 61.5 % inhibition | increase of uptake of aggregated tau into human iPSC-derived microglia [2]: 246 % increase | inhibition of uptake of aggregated tau into human iPSC-derived astrocytes [2]: 29.1 % inhibition | inhibition of uptake of aggregated tau into human iPSC-derived neurons [2]: 58.7 % inhibition | Kd [3]: 49 nM | Relative KD [3]: 1.08 fold vs VH0VK0 | koff [3]: 0.00234 s⁻¹ | kon [3]: 47700 M⁻¹ s⁻¹ | Kd [4]: 26.9 nM | Relative KD [4]: 1.08 fold vs VH0VK0 | koff [4]: 0.00186 s⁻¹ | kon [4]: 69200 M⁻¹ s⁻¹ | binding result [5]: no binding (tested: supernatant 1:100)

B6: Clone 19 (VH2Vκ2), humanised variant of clone #28, human IgG1 (antibody, V domains shown)
VH: B2 VH
VL: B1 VL
notes: also called VH2VK2
Kd [3]: 67.3 nM | Relative KD [3]: 1.49 fold vs VH0VK0 | koff [3]: 0.00324 s⁻¹ | kon [3]: 48100 M⁻¹ s⁻¹ | binding result [5]: no binding (tested: supernatant 1:100)

B8: Clone 24 (VH3Vκ4), humanised variant of clone #28, human IgG1 (antibody, V domains shown)
VH: QVQLQESGPGLVKPSETLSLTCTVSGFSLNNYDMSWVRQAPGKGLEWIGTVSTTYRRYYASWAKGRFTISKTSSTTVDLQMTSLTAEDTATYFCAASGIWGRGTLVTVSS
VL: B1 VL with A1D, Q2I, V3Q, L4M
notes: also called VH3VK4; VH3Vk4
inhibition of uptake of monomeric tau into human iPSC-derived astrocytes [1]: 31.5 % inhibition | inhibition of uptake of monomeric tau into human iPSC-derived neurons [1]: 63.3 % inhibition | increase of uptake of aggregated tau into human iPSC-derived microglia [2]: 267 % increase | inhibition of uptake of aggregated tau into human iPSC-derived astrocytes [2]: 30.8 % inhibition | inhibition of uptake of aggregated tau into human iPSC-derived neurons [2]: 61.4 % inhibition | Kd [3]: 21.2 nM | Relative KD [3]: 0.47 fold vs VH0VK0 | koff [3]: 0.00146 s⁻¹ | kon [3]: 68900 M⁻¹ s⁻¹ | Kd [4]: 17.1 nM | Relative KD [4]: 0.69 fold vs VH0VK0 | koff [4]: 0.0013 s⁻¹ | kon [4]: 76100 M⁻¹ s⁻¹ | binding result [5]: no binding (tested: supernatant 1:100)

Next, values leading:

inhibition of uptake of monomeric tau into human iPSC-derived astrocytes [1]: 45.7 % inhibition | inhibition of uptake of monomeric tau into human iPSC-derived neurons [1]: 64.2 % inhibition | increase of uptake of aggregated tau into human iPSC-derived microglia [2]: 243 % increase | inhibition of uptake of aggregated tau into human iPSC-derived astrocytes [2]: 45.7 % inhibition | inhibition of uptake of aggregated tau into human iPSC-derived neurons [2]: 41.3 % inhibition | Kd [3]: 67.3 nM | Relative KD [3]: 1.49 fold vs VH0VK0 | koff [3]: 0.00239 s⁻¹ | kon [3]: 35500 M⁻¹ s⁻¹ | Kd [4]: 33.6 nM | Relative KD [4]: 1.35 fold vs VH0VK0 | koff [4]: 0.00239 s⁻¹ | kon [4]: 71100 M⁻¹ s⁻¹ | binding result [5]: no binding (tested: supernatant 1:100)
B7: Clone 32 (VH5Vκ4), humanised variant of clone #28, human IgG1 (antibody, V domains shown)
VH: B1 VH
VL: B1 VL with A1D, Q2I, V3Q, L4M
notes: also called VH5VK4; VH5Vk4

Kd [3]: 136 nM | Relative KD [3]: 3 fold vs VH0VK0 | koff [3]: 0.00523 s⁻¹ | kon [3]: 38500 M⁻¹ s⁻¹ | binding result [5]: no binding (tested: supernatant 1:100)
B9: Clone 21 (VH2Vκ5), humanised variant of clone #28, human IgG1 (antibody, V domains shown)
VH: B2 VH
VL: B1 VL with A1D, Q2I, V3Q, L4M, Y30S, N32S
notes: also called VH2VK5

Kd [3]: 45.3 nM | Relative KD [3]: 1 fold vs VH0VK0 | koff [3]: 0.00342 s⁻¹ | kon [3]: 75400 M⁻¹ s⁻¹ | Kd [4]: 24.9 nM | Relative KD [4]: 1 fold vs VH0VK0 | koff [4]: 0.00249 s⁻¹ | kon [4]: 99900 M⁻¹ s⁻¹ | binding result [5]: no binding (tested: supernatant 1:100)
B10: Clone #28 VH0VK0 chimeric human IgG1 (rabbit VH and VK of Clone 1) (antibody, V domains shown)
VH: B2 VH with Q4E, P8G, S14G, E15G, S18T, Q79K, A85T, R101P, S109L
VL: AQVLTQTTSPVSAAVGGTVTINCQSSQRVYSNYLAWYQQKPGQPPKRLIFLASTLESGVPSRFSGSGSGTQFTLTISDLECDDAATYYCAGTYTGSIWAFGGGTEVVVK
notes: also called VH0Vκ0; #28 VH0κ0
